According to patent US20100279930A1 (published 2010):
Read-outs that look alike come from different tables or passages of the source. Blank lines part the entries; values can stand above or below the binder they belong to. No end group written: not given here.

Key:
human Y4 receptor [1] = biological target: T1, human Y4 receptor (human, UniProt P50391 1-375); assay: 125I-PP displacement
human Y4 receptor [2] = biological target: T1, human Y4 receptor; assay: 125I-PP displacement; remark: listed apart in the source

T1 sequence (P50391 whole entry): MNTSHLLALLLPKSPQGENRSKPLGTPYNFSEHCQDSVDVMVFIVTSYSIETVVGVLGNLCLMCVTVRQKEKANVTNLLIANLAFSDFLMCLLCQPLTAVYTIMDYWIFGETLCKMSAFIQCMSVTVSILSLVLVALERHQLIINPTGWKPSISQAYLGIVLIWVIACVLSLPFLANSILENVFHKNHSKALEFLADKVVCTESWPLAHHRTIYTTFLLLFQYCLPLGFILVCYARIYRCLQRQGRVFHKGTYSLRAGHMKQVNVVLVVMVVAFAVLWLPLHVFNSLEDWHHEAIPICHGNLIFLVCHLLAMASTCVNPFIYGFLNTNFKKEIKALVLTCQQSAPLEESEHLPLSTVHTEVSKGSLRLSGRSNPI

B1: 4058071 (protein)
chain: CAPLEPTYPGDNATPEQMARYAAALRRYINKLTRPRYCAPLEPTYPGDNATPEQMARYAAALRRYINKLTRPRY
IC50 (human Y4 receptor [1]): 0.143 nM

Binder: PLEPSYPGDNATPEQMAKYAAELRRYINLLTRPRY [4058152]
IC50 (human Y4 receptor [1]): 0.088 nM

Binder: PLEPTYPGDNATPEQMARYAAALRRYINKLTRPRY [4058067]
IC50 (human Y4 receptor [1]): 0.047 nM

Binder: PLEPEYPGDNATPEEMAKYAAELRRYINKLTRPRY [4058072]
IC50 (human Y4 receptor [1]): 0.051 nM

Binder: PLEPSYPGDNATPEQMAKYAAELRRYINKLTRPRY [4058146]
IC50 (human Y4 receptor [1]): 0.046 nM

Binder: AAPLEPSYPGDNATPEQMAKYAAELRRYINKLTRPRY [4058148]
IC50 (human Y4 receptor [1]): 0.051 nM

Binder: PAPLEPHYPGDNATPEQMAKYAAELRRYINKLTRPRY [4057766]
IC50 (human Y4 receptor [2]): 0.089 nM

Binder: AAPLEPTYPGDNATPEQMARYAAALRRYINKLTRPRY [4058068]
IC50 (human Y4 receptor [1]): 0.026 nM

Binder: PAPLEPHYPGDNATPEEMAKYAAELRRYINKLTRPRY [4058079]
IC50 (human Y4 receptor [1]): 0.071 nM

Binder: YAPLEPEYPGDNATPEEMAKYAAELRRYINKLTRPRY [4058075]
IC50 (human Y4 receptor [1]): 0.058 nM

Binder: PAPLEPEYPGDNATPEEMAKYAAELRRYINKLTRPRY [4058077]
IC50 (human Y4 receptor [1]): 0.059 nM

Binder: HAPLEPSYPGDNATPEQMAKYAAELRRYINKLTRPRY [4058150]
IC50 (human Y4 receptor [1]): 0.113 nM

Binder: GAPLEPEYPGDNATPEEMAKYAAELRRYINKLTRPRY [4058073]
IC50 (human Y4 receptor [1]): 0.131 nM

Binder: AAPLEPEYPGDNATPEEMAKYAAELRRYINKLTRPRY [4058076]
IC50 (human Y4 receptor [1]): 0.048 nM

Binder: HAPLEPEYPGDNATPEEMAKYAAELRRYINKLTRPRY [4058074]
IC50 (human Y4 receptor [1]): 0.116 nM

Binder: PAPLEPEYPGDNATPEELAKYAAELRRYINKLTRPRY [4058078]
IC50 (human Y4 receptor [1]): 0.072 nM

Binder: YAPLEPSYPGDNATPEQMAKYAAELRRYINKLTRPRY [4058151]
IC50 (human Y4 receptor [1]): 0.058 nM

Binder: GAPLEPHYPGDNATPEQMARYAAELRRYINKLTRPRY [4057903]
IC50 (human Y4 receptor [2]): 0.09 nM

Binder: GAPLEPSYPGDNATPEQMAKYAAELRRYINKLTRPRY [4058149]
IC50 (human Y4 receptor [1]): 0.07 nM

Binder: PAPLEPTYPGDNATPEQMARYAAALRRYINKLTRPRY [4058070]
IC50 (human Y4 receptor [1]): 0.03 nM

Binder: HAPLEPTYPGDNATPEQMARYAAALRRYINKLTRPRY [4058069]
IC50 (human Y4 receptor [1]): 0.07 nM

Binder: YAPLEPHYPGDDATPQQMARYAAELRRYINLLTRPRY [4058055]
IC50 (human Y4 receptor [2]): 0.11 nM

Binder: AAPLEPSYPGDDATPQQMAHYYSELRRYINLLTRPRY [4058082]
IC50 (human Y4 receptor [1]): 0.11 nM

Binder: APLEPSYPGDNATPEQMAKYAAELRRYINKLTRPRY [4058147]
IC50 (human Y4 receptor [1]): 0.057 nM

The remaining lines, values ahead:

IC50 (human Y4 receptor [1]): 0.047 nM
Binder: PLEPKYPGDNATPEQMAKYAAELRRYINKLTRPRY [4058158]

IC50 (human Y4 receptor [1]): 0.105 nM
Binder: PLEPEYPGDNATPEQMAKYAAELRRYINLLTRPRY [4058154]

IC50 (human Y4 receptor [1]): 0.063 nM
Binder: PLEPKYPGDNATPEQLAKYAAELRRYINKLTRPRY [4058165]

IC50 (human Y4 receptor [1]): 0.056 nM
Binder: AAPLEPKYPGDNATPEQLAKYAAELRRYINKLTRPRY [4058166]

IC50 (human Y4 receptor [1]): 0.099 nM
Binder: PAPLEPKYPGDNATPEQMAKYAAELRRYINLLTRPRY [4058169]

IC50 (human Y4 receptor [1]): 0.072 nM
Binder: AAPLEPVYPGDNATPEQLARYYSELRRYINKLTRPRY [4058298]

IC50 (human Y4 receptor [1]): 0.048 nM
Binder: PAPLEPKYPGDNATPEQLAKYAAELRRYINKLTRPRY [4058168]

IC50 (human Y4 receptor [1]): 0.125 nM
Binder: PAPLEPEYPGDNATPEQMAKYAAELRRYINLLTRPRY [4058155]

IC50 (human Y4 receptor [1]): 0.052 nM
Binder: GAPLEPKYPGDNATPEQMAKYAAELRRYINKLTRPRY [4058160]

IC50 (human Y4 receptor [1]): 0.106 nM
Binder: AAPLEPKYPGDNATPEQMAKYAAELRRYINKLTRPRY [4058159]

IC50 (human Y4 receptor [1]): 0.107 nM
Binder: PAPLEPSYPGDNATPEQMAKYAAELRRYINLLTRPRY [4058153]

IC50 (human Y4 receptor [1]): 0.06 nM
Binder: GAPLEPKYPGDNATPEQLAKYAAELRRYINKLTRPRY [4058167]

IC50 (human Y4 receptor [1]): 0.087 nM
Binder: HAPLEPKYPGDNATPEQMAKYAAELRRYINKLTRPRY [4058163]

IC50 (human Y4 receptor [1]): 0.058 nM
Binder: YAPLEPKYPGDNATPEQMAKYAAELRRYINKLTRPRY [4058164]

IC50 (human Y4 receptor [1]): 0.043 nM
Binder: PAPLEPVYPGDNATPEQLARYYSELRRYINKLTRPRY [4058297]

IC50 (human Y4 receptor [1]): 0.093 nM
Binder: PAPLEAVYPGDNATPEQMARYYSELRRYINKLTRPRY (ends and bridges not checked) [compound of SEQ ID NO:702 (code 4058286)]

IC50 (human Y4 receptor [1]): 0.21 nM
Binder: PAPLEIVYPGDNATPEQMARYYSELRRYINKLTRPRY [4058285]

IC50 (human Y4 receptor [1]): 0.042 nM
Binder: AAPLEPVYPGDNATPEQMARYYSELRRYINKLTRPRY [4058280]

IC50 (human Y4 receptor [1]): 0.059 nM
Binder: AAPLEPVYPGDNATPEEMARYYSELRRYINKLTRPRY [4058295]

IC50 (human Y4 receptor [1]): 0.053 nM
Binder: PLEPVYPGDNATPEQLARYYSELRRYINKLTRPRY [4058296]
